This note sets out measurements from patent US20230257436A1 (published 2023).

Assay [1] deals with T1, human prosaposin (PSAP) secreted from ARPE-19 cells stably transfected with human PSAP cDNA (human) (UniProt P07602).
T1 sequence: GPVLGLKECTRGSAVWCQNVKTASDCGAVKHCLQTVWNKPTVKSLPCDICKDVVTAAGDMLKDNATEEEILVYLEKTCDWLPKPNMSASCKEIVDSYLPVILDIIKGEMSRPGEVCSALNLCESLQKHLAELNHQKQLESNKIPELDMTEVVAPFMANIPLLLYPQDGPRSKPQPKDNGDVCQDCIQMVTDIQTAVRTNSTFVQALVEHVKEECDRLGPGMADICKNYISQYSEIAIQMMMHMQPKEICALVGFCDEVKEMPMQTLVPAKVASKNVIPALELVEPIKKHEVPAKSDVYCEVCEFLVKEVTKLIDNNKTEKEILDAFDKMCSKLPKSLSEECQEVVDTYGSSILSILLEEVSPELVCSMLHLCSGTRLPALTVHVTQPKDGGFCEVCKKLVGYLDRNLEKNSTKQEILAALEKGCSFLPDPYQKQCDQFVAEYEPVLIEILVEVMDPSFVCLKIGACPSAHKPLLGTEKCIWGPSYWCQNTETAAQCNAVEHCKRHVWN
The assay can be described thus: western blot of purified PGRN/PSAP complexes. On the technique in general: A western blot detects proteins with antibodies after separation by electrophoresis.

In assay [2] the target is T2, endogenous human progranulin (PGRN) in human plasma and CSF (human, UniProt P28799 18-593).
T2 sequence (looked up): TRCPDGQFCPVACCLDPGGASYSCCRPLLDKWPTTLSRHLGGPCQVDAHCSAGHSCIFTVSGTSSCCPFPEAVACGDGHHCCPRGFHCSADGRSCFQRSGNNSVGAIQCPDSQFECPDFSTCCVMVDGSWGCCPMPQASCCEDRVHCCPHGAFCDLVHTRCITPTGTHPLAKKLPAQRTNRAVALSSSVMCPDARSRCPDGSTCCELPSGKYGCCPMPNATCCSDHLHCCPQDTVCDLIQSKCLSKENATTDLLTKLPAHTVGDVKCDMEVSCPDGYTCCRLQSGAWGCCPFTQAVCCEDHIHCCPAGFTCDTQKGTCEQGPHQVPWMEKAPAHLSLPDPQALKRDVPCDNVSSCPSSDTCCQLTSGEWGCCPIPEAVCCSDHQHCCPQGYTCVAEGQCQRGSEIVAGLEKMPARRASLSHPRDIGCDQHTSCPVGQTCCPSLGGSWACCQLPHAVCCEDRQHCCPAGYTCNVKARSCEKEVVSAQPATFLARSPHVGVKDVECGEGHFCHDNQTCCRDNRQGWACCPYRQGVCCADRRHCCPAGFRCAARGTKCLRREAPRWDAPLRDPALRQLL
As to the kind of experiment: sandwich ELISA on human plasma and CSF. On the technique in general: An ELISA detects its analyte on a solid surface through an enzyme-linked reagent.

Assay [3] has as its target T3, commercially available recombinant PGRN (R&D Systems; PGRN-His, cat no. 2420-PG) (UniProt P28799 18-593, limits assumed).
T3 construct: The assay is titled 'Human PGRN/PSAP Complex Assay'; not shown: His tag
T3 sequence (looked up): T2 sequence (looked up)
As to the kind of experiment: mixing in vitro, western blot.

For the molecule “human progranulin (PGRN) secreted from ARPE-19 cells stably transfected with the human progranulin gene (pT2.CAn.PGRN plasmid) (from UniProt P28799 18-593) (ligand)”, in assay [1], the stoichiometry of PGRN and PSAP in the complex (PGRN:PSAP ratio) came to 1.

B1: endogenous human prosaposin (PSAP), as expressed by non-PSAP-transfected ARPE-19 derived cells and as present in human plasma and CSF (ligand, UniProt P07602 17-524, looked up)
chain: T1 sequence
Take B1: the binding result in assay [2] is recorded as “binds”.

B2: human prosaposin (PSAP) secreted from ARPE-19 cells stably transfected with human PSAP cDNA (ligand)
chain: T1 sequence
notes: The protein was secreted into conditioned medium; no signal peptide limits are stated; also called ARPE-PSAP; PSAP (#7)
On to B2, for which the binding result in assay [3] is on record as “binds”.
